Data on 1 molecule can be found in patent US20230321209A1.

The test has as its target human Adenovirus capsid. The experiment in a line: SPR, peptide on adenovirus capsid (FIGS. 13A-13B).

For the molecule KKKKKKKRAKVTSAMQTMLFTMLRKL [R1A_KRAKV SARS-CoV2 peptide with 6K poly-lysine tail], the list of priority (rank by SPR binding, high binders listed first) amounted to 5 rank.
